Experimental data published in patent US20240166727A1 (CEINGE BIOTECNOLOGIE AVANZATE SCARL, published 2024).

Biological target: Spike glycoprotein on SARS-COV-2 viral particles (Italian Variant, Genbank MT682732.1, GISAID EPI_ISL_477204) (SARS-COV-2, UniProt P0DTC2 14-1273)
Experiment: cell-based or functional assay

B1: D3 mAb (fully human IgG4 anti-Spike RBD antibody) (antibody, V domains shown)
VH: QVQLVQSGAEVKKPGATVKISCKVSGYTFTDYYMHWVQQAPGKGLEWMGLVDPEDGETIYAEKFQGRVTITADTSTDTAYMELSSLRSEDTAVYYCARGAKATLGLWGQGTLVTVSR
VL: ELTQDPAVSVALGQTVRITCQGDSLRSYYASWYQQKPGQAPVLVIYGKNNRPSGIPDRFSGSSSGNTASLTITGAQAEDEADYYCNSRDSSGNHVVFGGGTKLTVL
B1 was tested, and the “IC50 of inhibition of viral infectivity (VERO E6 cells, 0.5 MOI)” value was 15 µg/mL.
